# Reference: patent publication US20220033515A1 (Genentech, published 2022)
# Numbering of substitutions follows the chain as printed. Where “and” joins values, the source holds several entries; their conditions need not be identical. Identical values can stand only once. Like-named read-outs stand apart in the source and are kept apart here.
# T1: hVEGF109 (human, UniProt P15692 214-315)
# T1 construct: range 8-109; also called VEGF (8-109)
# T1 sequence (looked up): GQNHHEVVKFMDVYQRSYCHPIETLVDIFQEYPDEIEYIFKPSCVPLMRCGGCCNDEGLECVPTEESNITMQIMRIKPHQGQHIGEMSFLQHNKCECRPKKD
# T2: murine VEGF (mVEGF) (murine, UniProt Q00731-2 27-190)
# T2 sequence (looked up): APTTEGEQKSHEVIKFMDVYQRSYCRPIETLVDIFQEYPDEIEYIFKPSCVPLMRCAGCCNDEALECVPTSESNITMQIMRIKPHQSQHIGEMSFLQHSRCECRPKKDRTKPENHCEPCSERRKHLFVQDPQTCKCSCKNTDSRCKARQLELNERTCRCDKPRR
# T3: hVEGF-C (human, UniProt P49767 103-227)
# T3 sequence (looked up): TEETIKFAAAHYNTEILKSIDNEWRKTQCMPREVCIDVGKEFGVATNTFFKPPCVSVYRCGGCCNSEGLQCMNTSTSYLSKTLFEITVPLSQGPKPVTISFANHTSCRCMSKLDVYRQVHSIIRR
# T4: hVEGF-D (human, UniProt O43915 93-201)
# T4 sequence (looked up): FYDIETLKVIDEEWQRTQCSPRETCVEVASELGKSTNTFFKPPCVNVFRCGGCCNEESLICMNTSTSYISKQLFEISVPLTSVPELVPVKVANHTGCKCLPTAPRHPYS
# B1: H4_D (antibody, V domains shown)
# VH: not shown
# VL: DIQMTQSPSSLSASVGDRVTITCRASQDIRSGSVAWYQQKPGKAPKLLIYWGSYLYSGVPSRFSGSGSGTDFTLTISSLQPEDFATYYCQQHYTTPPTFGQGTKVEIK
# notes: also called H4_D hIgG
# B2: H4_N (antibody, V domains shown)
# VH: not shown
# VL: B1 VL with D28N, G52A
# notes: also called H4_N hIgG; H4_N Fab
# B3: 3-2 (scFv, V domains shown)
# VH: not shown
# VL: B1 VL with S31M, Y54V
# B4: H5 (row of FIG.8a) (scFv, V domains shown)
# VH: not shown
# VL: B1 VL with S31G, W51G, H92Y
# B5: bH3 (antibody, V domains shown)
# VH: not shown
# VL: DIQMTQSPSSLSASVGDRVTITCRASQDIGLGSVAWYQQKPGKAPKLLIYWASYLYSGVPSRFSGSGSGTDFTLTISSLQPEDFATYYCQQHYTTPPTFGQGTKVEIKR
# B6: H3 hIgG (antibody, V domains shown)
# VH: not shown
# VL: B5 VL
# notes: also called bH3 IgG; not shown: rest of the human IgG heavy chain constant region
# B7: 3-1 (antibody, V domains shown)
# VH: not shown
# VL: DIQMTQSPSSLSASVGDRVTITCRASQNVWDWVAWYQQKPGKAPKLLIYPASSLYSGVPSRFSGSGSGTDFTLTISSLQPEDFATYYCQQGWYIAPPTFGQGTKVEIKR
# B8: 3-1 hIgG (antibody, V domains shown)
# VH: not shown
# VL: B7 VL
# notes: not shown: rest of the human IgG heavy chain constant region
# B9: bH1 (antibody, V domains shown)
# VH: not shown
# VL: DIQMTQSPSSLSASVGDRVTITCRASQDIPRSISGYVAWYQQKPGKAPKLLIYWGSYLYSGVPSRFSGSGSGTDFTLTISSLQPEDFATYYCQQHYTTPPTFGQGTKVEIKR
# notes: also called anti-hVEGF/Her2 bi-specific antibody
# B10: bH1 hIgG (antibody, V domains shown)
# VH: not shown
# VL: B9 VL
# notes: also called bH1 IgG; not shown: rest of the human IgG heavy chain constant region
# Experiments:
# [1] = biological target: T5, HER2 extracellular domain (Her2-ECD) (human, UniProt P04626 23-652); assay: Biacore SPR
# T5 construct: extracellular domain; also called hHER2 extracellular domain (ECD)
# [2] = biological target: T1, hVEGF109; assay: Biacore SPR, steady state analysis (* for kon and koff)
# [3] = biological target: T6, human vascular endothelial growth factor (hVEGF) (human, UniProt P15692-4 27-191); assay: competitive phage ELISA
# T6 construct: also called hVEGF-A; human vascular endothelial growth factor A
# [4] = biological target: T5, HER2 extracellular domain (Her2-ECD); assay: competitive phage ELISA
# [5] = biological target: T1, hVEGF109; assay: single-spot competitive phage ELISA
# [6] = biological target: T5, HER2 extracellular domain (Her2-ECD); assay: single-spot competitive phage ELISA
# [7] = biological target: T5, HER2 extracellular domain (Her2-ECD); assay: competitive phage ELISA; remark: listed apart in the source
# [8] = biological target: T6, human vascular endothelial growth …; assay: equilibrium KD; method and format (Fab or IgG) not given
# [9] = biological target: T5, HER2 extracellular domain (Her2-ECD); assay: equilibrium KD; method and format (Fab or IgG) not given; HER2, second number of the cell
# [10] = biological target: T2, murine VEGF (mVEGF); assay: ELISA on immobilised target
# [11] = biological target: T3, hVEGF-C; assay: ELISA on immobilised target
# [12] = biological target: T4, hVEGF-D; assay: ELISA on immobilised target
# [13] = biological target: T7, epidermal growth factor receptor extracellular domain (hEGFR) (human, UniProt P00533 25-645); assay: ELISA on immobilised target
# T7 construct: extracellular domain
# [14] = biological target: T8, human death receptor 5 (hDR5) (human, UniProt O14763 56-210); assay: ELISA on immobilised protein
# T8 construct: also called DR5 long; hDR5-1f
# [15] = biological target: T9, bovine serum albumin (BSA) (bovine, UniProt P02769 25-607); assay: ELISA on immobilised protein
# [16] = biological target: T1, hVEGF109; assay: Biacore SPR
# [17] = biological target: T5, HER2 extracellular domain (Her2-ECD); assay: single-spot phage ELISA
# [18] = biological target: T5, HER2 extracellular domain (Her2-ECD); assay: ELISA on immobilised protein
# [19] = biological target: T3, hVEGF-C; assay: ELISA on immobilised protein
# [20] = biological target: T4, hVEGF-D; assay: ELISA on immobilised protein
# [21] = biological target: T7, epidermal growth factor receptor …; assay: ELISA on immobilised protein
# [22] = biological target: T8, human death receptor 5 (hDR5); assay: ELISA on immobilised target
# [23] = biological target: T9, bovine serum albumin (BSA); assay: ELISA on immobilised target
binder,measurement,setting,value
B1,Kd,[1],11 nM
same,koff,[1],0.0012 s⁻¹
same,kon,[1],100000 M⁻¹ s⁻¹
same,Kd,[2],2300 nM
B2,Kd,[1],10 nM and 6 nM
same,koff,[1],0.0013 s⁻¹
same,kon,[1],140000 M⁻¹ s⁻¹ and 230000 M⁻¹ s⁻¹
same,Kd,[2],550 nM
B3,IC50,[3],> 1000 nM
same,IC50,[4],1.56 nM
B4,"% signal, SSC +/- 50nM Vegf",[5],88.8%
same,OD450 without competitor,[5],2.77
same,OD450 without competitor,[6],2.87
B5,IC50,[7],2.6 nM
same,OD450 without competitor,[6],1.96
same,Kd,[8],19000 nM
same,Kd,[9],8 nM
B6,Kd,[1],20 nM
same,binding result,[10],no binding (tested: 100 nM (text))
same,binding result,[11],no binding (tested: 100 nM (text))
same,binding result,[12],no binding (tested: 100 nM (text))
same,binding result,[13],no binding (tested: 100 nM (text))
same,binding result,[14],no binding (tested: 100 or 500 nM (text))
same,binding result,[15],no binding (tested: 100 or 500 nM (text))
B7,Kd,[16],15 nM
same,binding result,[17],no binding
same,Kd,[8],15 nM
B8,Kd,[16],12 nM
same,binding result,[18],no binding (tested: 100 or 500 nM (text))
same,binding result,[14],no binding (tested: 100 or 500 nM (text))
same,binding result,[19],no binding (tested: 100 or 500 nM (text))
same,binding result,[20],no binding (tested: 100 or 500 nM (text))
same,binding result,[21],no binding (tested: 100 or 500 nM (text))
same,binding result,[15],no binding (tested: 100 or 500 nM (text))
B9,IC50,[7],10 nM
same,Kd,[9],26 nM
B10,Kd,[1],9.8 nM
same,binding result,[22],no binding (tested: 100 nM (text))
same,binding result,[11],no binding (tested: 100 nM (text))
same,binding result,[12],no binding (tested: 100 nM (text))
same,binding result,[13],no binding (tested: 100 nM (text))
same,binding result,[23],no binding (tested: 100 nM (text))
